Results published in article PMC8487046, “Insights into the ligand binding specificity of SREC‐II (scavenger receptor expressed by endothelial cells)” (FEBS Open Bio, 2021).

B1: SREC‐II(44‐442), extracellular domain of scavenger receptor expressed by endothelial cells II (domain or fragment)
chain: QELNPRGRNVCRAPGSQVPTCCAGWRQQGDECGIAVCEGNSTCSENEVCVRPGECRCRHGYFGANCDTKCPRQFWGPDCKELCSCHPHGQCEDVTGQCTCHARRWGARCEHACQCQHGTCHPRSGACRCEPGWWGAQCASACYCSATSRCDPQTGACLCHAGWWGRSCNNQCACNSSPCEQQSGRCQCRERTFGARCDRYCQCFRGRCHPVDGTCACEPGYRGKYCREPCPAGFYGLGCRRRCGQCKGQQPCTVAEGRCLTCEPGWNGTKCDQPCATGFYGEGCSHRCPPCRDGHACNHVTGKCTRCNAGWIGDRCETKCSNGTYGEDCAFVCADCGSGHCDFQSGRCLCSPGVHGPHCNVTCPPGLHGADCAQACSCHEDTCDPVTGACHLETNQRKGLIK
modifications: N‐terminal glutamine 44 converted to pyroglutamate; N‐glycosylated (extra mass of 11.3 kDa)
notes: SREC-II (encoded by SCARF2), extracellular moiety; 3 amino acids (Leu-Ile-Lys) between Gly442 and the 8 His residues; also called SREC‐II ectodomain; soluble SREC‐II; not shown: His8, C-terminal, kept

What was measured:
[1] = target: T1, complement C1q, purified human (human, UniProt P02745 23-245; P02746 28-253; P02747 29-245); assay: SPR; C1q immobilized (18 700 RU, CM5, amine coupling; BSA as reference surface), serially diluted SREC-II(44-442) injected; TBS-Ca-P; 20 µL/min; 25 °C; global fit, 1:1 Langmuir model; apparent KD; conditions: both partners purified
T1 construct: MW used: 459 300 g/mol; source: purified human C1q, prepared as described previously [8]; copies: + +

[2] = target: B1; assay: SPR; SREC-II(44-442) immobilized (1973 RU, CM5, amine coupling), CRT injected at five increasing concentrations in single cycle kinetics mode; TBS-Ca-P; 30 µL/min; 25 °C; global fit, two-state reaction model; apparent KD; conditions: both partners purified

T1 sequence (P02745 23-245, chain 1 of 3): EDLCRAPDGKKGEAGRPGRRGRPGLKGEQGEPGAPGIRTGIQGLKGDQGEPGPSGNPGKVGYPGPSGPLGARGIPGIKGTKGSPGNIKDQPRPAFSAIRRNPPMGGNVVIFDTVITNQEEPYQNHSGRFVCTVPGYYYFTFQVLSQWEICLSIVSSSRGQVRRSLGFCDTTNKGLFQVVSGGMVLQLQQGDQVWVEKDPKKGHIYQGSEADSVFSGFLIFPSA
T1 sequence (P02746 28-253, chain 2 of 3): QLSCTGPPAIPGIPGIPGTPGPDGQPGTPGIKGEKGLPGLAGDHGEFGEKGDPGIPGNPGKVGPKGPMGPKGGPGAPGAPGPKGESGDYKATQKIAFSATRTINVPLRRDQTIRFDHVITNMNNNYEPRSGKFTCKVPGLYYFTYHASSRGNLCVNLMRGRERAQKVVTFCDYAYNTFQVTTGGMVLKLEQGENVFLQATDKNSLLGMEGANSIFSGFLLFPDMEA
T1 sequence (P02747 29-245, chain 3 of 3): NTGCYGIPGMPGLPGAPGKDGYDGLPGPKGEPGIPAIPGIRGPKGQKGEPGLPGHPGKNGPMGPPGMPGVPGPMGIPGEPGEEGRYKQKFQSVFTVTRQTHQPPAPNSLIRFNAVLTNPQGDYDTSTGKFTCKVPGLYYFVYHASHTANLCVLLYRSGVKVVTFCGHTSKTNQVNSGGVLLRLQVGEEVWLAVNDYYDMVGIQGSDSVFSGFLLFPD

Row | Kd [1] | koff [1] | kon [1] | Kd [2] | Binder
1 | 45 nM | 0.001 s⁻¹ | 20000 M⁻¹ s⁻¹ | – | B1
2 | – | – | – | 290 nM | recombinant human calreticulin (CRT) (natural protein, UniProt P27797 18-417, looked up, calreticulin, human; source: recombinant, produced according to published procedures [6, 9]) EPAVYFKEQFLDGDGWTSRWIESKHKSDFGKFVLSSGKFYGDEEKDKGLQTSQDARFYALSASFEPFSNKGQTLVVQFTVKHEQNIDCGGGYVKLFPNSLDQTDMHGDSEYNIMFGPDICGPGTKKVHVIFNYKGKNVLINKDIRCKDDEFTHLYTLIVRPDNTYEVKIDNSQVESGSLEDDWDFLPPKKIKDPDASKPEDWDERAKIDDPTDSKPEDWDKPEHIPDPDAKKPEDWDEEMDGEWEPPVIQNPEYKGEWKPRQIDNPDYKGTWIHPEIDNPEYSPDPSIYAYDNFGVLGLDLWQVKSGTIFDNFLITNDEAYAEEFGNETWGVTKAAEKQMKDKQDEEQRLKEEEEDKKRKEEEEAEDKEDDEDKDEDEEDEEDKEEDEEEDVPGQAKDEL
